Data as given in patent US20240400663A1 (Regeneron, published 2024).

B1: H1H29089P (antibody, V domains shown)
VH: EVQLVQSGAEVKKPGESLKISCKGSGYSFTSYWIVWVRQMPGKGLEWMGIIYPGDSDTRYSPSFQGQVTISADKSISTAYLQWSSLKASDTAMYYCARQDITGTTGFDYWGQGTLVTVSS
VL: DIQMTQSPSSLSASVGDRVTITCRASQSIRNYLNWYQQKPGKAPKLLIYAASSLQSGVPSRFSGSGSGTDFTLTISSLQPEDFATYFCQQSYSTPFTFGPGTKVDIKR
B2: H1H29100P (antibody, V domains shown)
VH: QLQLQESGPGLVKPSETLSLTCTVSGGSISSSSYYWGWIRQPPGKGLEWIGIIYYSGSTYYNPSLKSRVTISVDTSKNQFSLKLSSVTAADTAVYYCARQDREALFDYWGQGTLVTVSS
VL: EIVLTQSPDFQSVTPKEKVTITCRASQRIGSSLHWYQQKPDQSPKLLIKYASQSFSGVPSRFSGSGSGTDFTLTINSLEAEDAATYYCHQSSTLPTFGQGTRLEIKR

How the values were obtained:
Experiment in all cases: cell-based or functional assay
[1] = molecular target: T1, PfRH5 of Plasmodium falciparum strain FCR-1/FVO (on live parasites) (Plasmodium falciparum)
[2] = molecular target: T2, PfRH5 of Plasmodium falciparum strain Dd2 (on live parasites) (Plasmodium falciparum)
[3] = molecular target: PfRH5 of Plasmodium falciparum strain Cam3.II (on live parasites) (Plasmodium falciparum)
[4] = molecular target: PfRH5 of Plasmodium falciparum strain RF7 (on live parasites) (Plasmodium falciparum)
[5] = molecular target: PfRH5 of Plasmodium falciparum strain D10 (on live parasites) (Plasmodium falciparum)
[6] = molecular target: PfRH5 of Plasmodium falciparum strain HB3 (on live parasites) (Plasmodium falciparum)
[7] = molecular target: PfRH5 of Plasmodium falciparum strain W2-mef (on live parasites) (Plasmodium falciparum)
[8] = molecular target: T1, PfRH5 of Plasmodium falciparum strain …; remark: listed apart in the source
[9] = molecular target: T3, PfRH5 of Plasmodium falciparum strain 7G8 (on live parasites) (Plasmodium falciparum)
[10] = molecular target: T3, PfRH5 of Plasmodium falciparum strain …; remark: listed apart in the source
[11] = molecular target: T2, PfRH5 of Plasmodium falciparum strain …; remark: listed apart in the source

Binder | Percent Maximum Growth Inhibition, FCR-1/FVO, mAb (6.67 µM) + AHIS (10%) [1] [%] | Percent Maximum Growth Inhibition, FCR-1/FVO, mAb (6.67 µM) + ANS (10%) [1] [%] | Percent Maximum Growth Inhibition, FCR-1/FVO, mAb (6.67 µM) + HHIS (10%) [1] [%] | Percent Maximum Growth Inhibition, FCR-1/FVO, mAb (6.67 µM) + HNS (10%) [1] [%] | Percent Maximum Growth Inhibition, FCR-1/FVO, mAb (6.67 µM) + No serum [1] [%] | Max growth inhibition (%) Dd2 [2] [%] | Max growth inhibition (%) Cam3.II [3] [%] | Max growth inhibition (%) RF7 [4] [%] | Max growth inhibition (%) D10 [5] [%] | Max growth inhibition (%) HB3 [6] [%] | Max growth inhibition (%) W2-mef [7] [%] | Max growth inhibition (%) FCR-1/FVO [8] [%] | Max growth inhibition (%) 7G8 [9] [%] | Max growth inhibition (%) 7G8, no chloroquine [10] [%] | Maximum growth inhibition (%) Dd2 [11] [%]
B1 | 84.3 | 75.7 | 85.2 | 85 | 85.3 | 71.3 | 56.2 | 28.9 | 82.3 | 59.1 | 66.4 | 66 | 70.1 | 51.1 | –
B2 | 82.5 | 73.2 | 81.9 | 82.4 | 83.9 | 64.6 | 52.4 | 17 | 81.7 | 62.6 | 67.3 | 66.9 | 66.4 | 48.9 | 65.7
